Consider one molecule from publication PMC5740162, “Cryo-EM structure of a licensed DNA replication origin” (Nature Communications, 2017).

In one experiment the target is T1, Mcm4 (budding yeast, UniProt P30665 1-933).
T1 construct: Mcm4, subunit of the yeast Mcm2-7 helicase; Subunit as it stands in the loaded, unmodified MCM double hexamer
T1 sequence: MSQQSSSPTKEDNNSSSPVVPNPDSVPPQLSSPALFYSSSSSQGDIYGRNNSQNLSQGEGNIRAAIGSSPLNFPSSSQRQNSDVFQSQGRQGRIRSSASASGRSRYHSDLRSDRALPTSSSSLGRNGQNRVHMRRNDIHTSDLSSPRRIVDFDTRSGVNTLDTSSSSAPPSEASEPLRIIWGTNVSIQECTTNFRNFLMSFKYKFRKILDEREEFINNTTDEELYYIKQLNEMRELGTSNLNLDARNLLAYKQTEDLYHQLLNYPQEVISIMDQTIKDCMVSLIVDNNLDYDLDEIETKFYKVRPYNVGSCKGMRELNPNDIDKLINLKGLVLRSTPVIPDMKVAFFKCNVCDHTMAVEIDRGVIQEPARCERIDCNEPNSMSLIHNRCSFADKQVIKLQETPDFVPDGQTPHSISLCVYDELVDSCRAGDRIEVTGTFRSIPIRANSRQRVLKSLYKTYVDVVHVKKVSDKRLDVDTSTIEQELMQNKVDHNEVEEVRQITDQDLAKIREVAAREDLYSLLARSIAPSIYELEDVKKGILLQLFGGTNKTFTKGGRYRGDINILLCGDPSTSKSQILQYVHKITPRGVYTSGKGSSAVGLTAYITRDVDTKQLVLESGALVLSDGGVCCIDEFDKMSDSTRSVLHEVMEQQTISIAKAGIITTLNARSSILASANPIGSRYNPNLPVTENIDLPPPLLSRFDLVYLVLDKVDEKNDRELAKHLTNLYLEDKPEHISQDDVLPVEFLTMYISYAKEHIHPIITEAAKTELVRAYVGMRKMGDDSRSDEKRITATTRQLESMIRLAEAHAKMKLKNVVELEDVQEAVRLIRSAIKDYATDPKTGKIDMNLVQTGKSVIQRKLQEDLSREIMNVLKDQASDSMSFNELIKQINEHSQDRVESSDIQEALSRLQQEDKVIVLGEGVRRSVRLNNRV
In words: cryo-EM structure; MCM loaded on bead-immobilised biotinylated 2.8 kb ARS1 DNA with ORC, Cdc6, ATP; with or without DDK; high-salt wash (0.3 M KCl); DNA released by MseI in EM buffer (25 mM Hepes 7.6, 5 mM Mg-acetate, 250 mM K-glutamate); lacey carbon grids, Titan Krios/K2. To be noted: both partners purified.

In another experiment the target is T2, Mcm3 (budding yeast, UniProt P24279 1-971).
T2 construct: Mcm3, subunit of the yeast Mcm2-7 helicase; Subunit as it stands in the loaded, unmodified MCM double hexamer; The complex was purified on calmodulin resin
T2 sequence (P24279 whole entry): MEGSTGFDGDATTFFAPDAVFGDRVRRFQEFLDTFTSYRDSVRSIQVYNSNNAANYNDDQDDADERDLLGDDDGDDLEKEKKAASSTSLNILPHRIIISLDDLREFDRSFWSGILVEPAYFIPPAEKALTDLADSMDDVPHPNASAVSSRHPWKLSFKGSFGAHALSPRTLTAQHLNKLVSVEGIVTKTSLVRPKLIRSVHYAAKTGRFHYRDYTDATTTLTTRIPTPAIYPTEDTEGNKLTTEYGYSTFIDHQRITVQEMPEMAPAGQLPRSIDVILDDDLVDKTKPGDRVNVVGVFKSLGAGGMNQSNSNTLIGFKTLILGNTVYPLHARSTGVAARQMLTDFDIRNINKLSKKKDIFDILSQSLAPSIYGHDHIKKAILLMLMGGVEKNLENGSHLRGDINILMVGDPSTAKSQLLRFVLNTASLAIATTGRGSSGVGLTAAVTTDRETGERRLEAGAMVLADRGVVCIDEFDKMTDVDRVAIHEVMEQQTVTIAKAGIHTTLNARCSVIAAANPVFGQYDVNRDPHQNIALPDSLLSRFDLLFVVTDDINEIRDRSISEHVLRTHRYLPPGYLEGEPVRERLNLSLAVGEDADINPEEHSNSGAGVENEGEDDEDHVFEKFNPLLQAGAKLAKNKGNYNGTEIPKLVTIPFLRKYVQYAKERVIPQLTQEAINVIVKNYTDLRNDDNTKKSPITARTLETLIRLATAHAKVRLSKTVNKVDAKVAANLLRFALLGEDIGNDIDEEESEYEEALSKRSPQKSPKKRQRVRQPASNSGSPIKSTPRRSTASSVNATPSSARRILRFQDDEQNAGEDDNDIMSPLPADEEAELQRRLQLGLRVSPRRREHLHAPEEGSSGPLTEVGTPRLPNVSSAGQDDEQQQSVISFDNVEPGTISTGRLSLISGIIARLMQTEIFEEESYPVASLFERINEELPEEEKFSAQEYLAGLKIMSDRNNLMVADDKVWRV
Described as above. The settings on record: both partners purified.

B1: Mcm7 (natural protein, budding yeast)
chain: MSAALPSIQLPVDYNNLFNEITDFLVTFKQDTLSSDATRNENEDENLDAENIEQHLLEKGPKYMAMLQKVANRELNSVIIDLDDILQYQNEKFLQGTQADDLVSAIQQNANHFTELFCRAIDNNMPLPTKEIDYKDDVLDVILNQRRLRNERMLSDRTNEIRSENLMDTTMDPPSSMNDALREVVEDETELFPPNLTRRYFLYFKPLSQNCARRYRKKAISSKPLSVRQIKGDFLGQLITVRGIITRVSDVKPAVEVIAYTCDQCGYEVFQEVNSRTFTPLSECTSEECSQNQTKGQLFMSTRASKFSAFQECKIQELSQQVPVGHIPRSLNIHVNGTLVRSLSPGDIVDVTGIFLPAPYTGFKALKAGLLTETYLEAQFVRQHKKKFASFSLTSDVEERVMELITSGDVYNRLAKSIAPEIYGNLDVKKALLLLLVGGVDKRVGDGMKIRGDINVCLMGDPGVAKSQLLKAICKISPRGVYTTGKGSSGVGLTAAVMKDPVTDEMILEGGALVLADNGICCIDEFDKMDESDRTAIHEVMEQQTISISKAGINTTLNARTSILAAANPLYGRYNPRLSPLDNINLPAALLSRFDILFLMLDIPSRDDDEKLAEHVTYVHMHNKQPDLDFTPVEPSKMREYIAYAKTKRPVMSEAVNDYVVQAYIRLRQDSKREMDSKFSFGQATPRTLLGIIRLSQALAKLRLADMVDIDDVEEALRLVRVSKESLYQETNKSKEDESPTTKIFTIIKKMLQETGKNTLSYENIVKTVRLRGFTMLQLSNCIQEYSYLNVWHLINEGNTLKFVDDGTMDTDQEDSLVSTPKLAPQTTASANVSAQDSDIDLQDA
notes: Mcm7, subunit of the yeast Mcm2-7 helicase; Subunit as it stands in the loaded, unmodified MCM double hexamer
Consider B1, for which the binding result with Mcm4 and in the experiment with Mcm3 was “binds” in each case.
